Test results from the supplement of paper PMC12042874.
± gives the uncertainty stated by the source.

Assay: amyloid nucleation score (Sup35N fusion, yeast selection) (log enrichment); library NNK3; higher = more nucleation; inactive = no reads after selection
In short: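 The nucleation score, computed with DiMSum, is the log enrichment of output over input reads, centred on the mode score of non-aggregating sequences. Sequences with under 100 input reads were dropped. Reads were generated by Illumina sequencing of plasmid inserts from psi-negative yeast with Sup35N fused to peptides of 20 random codons, induced with 100 μM copper sulfate for 24 hours and grown 7 days at 30°C on medium lacking adenine and uracil.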

Substance: CIIFYCIYGFN
- amyloid nucleation score: 3.04 ± 0.073

Substance: CILSVHGGILLFSIGAAFGR
- amyloid nucleation score: 0.779 ± 0.27

Substance: CILYYLNSSMVIGTCLFILN
- amyloid nucleation score: 1.36 ± 0.085

Substance: CISKCLVNNV
- amyloid nucleation score: inactive

Substance: CIYCIVA
- amyloid nucleation score: 2.64 ± 0.087

Substance: CIYGKVFF
- amyloid nucleation score: 0.309 ± 0.28

Substance: CKARTSASSNQHRESVYGLE
- amyloid nucleation score: inactive

Substance: CKCEQVFLGLNLRYKEHDAW
- amyloid nucleation score: inactive

Substance: CKFFQGKEEVS
- amyloid nucleation score: inactive

Substance: CKILHDRHMYVCLFAYCFVC
- amyloid nucleation score: inactive

Substance: CKRLPIACLTSLTKAR
- amyloid nucleation score: inactive

Substance: CKTMFYY
- amyloid nucleation score: inactive

Substance: CLDARYKMRV
- amyloid nucleation score: inactive

Substance: CLFGHGY
- amyloid nucleation score: inactive

Substance: CLFREA
- amyloid nucleation score: inactive

Substance: CLFWMTWDVSRDS
- amyloid nucleation score: inactive

Substance: CLGGQRHDVLPVCCWEFIME
- amyloid nucleation score: inactive

Substance: CLGLHQILM
- amyloid nucleation score: inactive

Substance: CLHLWGVFKFFDVYWIMLMG
- amyloid nucleation score: inactive

Substance: CLMKIWLTVEGTSHRALGFR
- amyloid nucleation score: inactive

Substance: CLNFFPSNSWILFILMIVQK
- amyloid nucleation score: inactive

Substance: CLNGSCAMLSGLVCLLCNRQ
- amyloid nucleation score: 2.38 ± 0.058

Substance: CLRECWCSGNTTHGSHWSTC
- amyloid nucleation score: inactive

Substance: CLSRSCSFFYKATYLRSEMM
- amyloid nucleation score: inactive

Substance: CLSSSETPFSGDRTMA
- amyloid nucleation score: -0.046 ± 0.52

Substance: CLVSLVFRFIVY
- amyloid nucleation score: inactive

Substance: CLYLAS
- amyloid nucleation score: inactive

Substance: CMAFLHPLF
- amyloid nucleation score: inactive

Substance: CMIHYSSRAILEMWLAPRMY
- amyloid nucleation score: inactive

Substance: CMRLLTWIKPNWLLLVCLKT
- amyloid nucleation score: inactive

Substance: CMVCYLLPGSVSTCSCVRGI
- amyloid nucleation score: 2.75 ± 0.064

Substance: CNFVNSKRNFLYTLG
- amyloid nucleation score: inactive

Substance: CNHVLTNRLMHSSKNRCLFI
- amyloid nucleation score: inactive

Substance: CNMDISVCYYRLLMWQRGFR
- amyloid nucleation score: inactive

Substance: CNMGYSIFVFILNLSPV
- amyloid nucleation score: 1.99 ± 0.09

Substance: CNNMYRERNNFWILMEWSLL
- amyloid nucleation score: inactive

Substance: CNPQTFSFVLMVRLCSKSGV
- amyloid nucleation score: inactive

Substance: CNTPR
- amyloid nucleation score: inactive

Substance: CNVNIHYFGTV
- amyloid nucleation score: inactive

Substance: CNVRSFRFRCSGSPHSARSS
- amyloid nucleation score: inactive

Substance: CNYFVF
- amyloid nucleation score: inactive

Substance: CNYLTMSGF
- amyloid nucleation score: inactive

Substance: CNYNGLESILR
- amyloid nucleation score: inactive

Substance: CPCGNVGVFLGLTRTVKGKS
- amyloid nucleation score: inactive

Substance: CPIWKDRDCFLLSIKYYALQ
- amyloid nucleation score: -0.24 ± 0.31

Substance: CPMVLSQEGSTAPEQCVGLG
- amyloid nucleation score: inactive

Substance: CPTCESGKERGVKYVKFLNW
- amyloid nucleation score: inactive

Substance: CPYLSSVLHDAQLKATFING
- amyloid nucleation score: 1.11 ± 0.096

Substance: CQGIMDRRTSKRMPIANMVQ
- amyloid nucleation score: inactive

Substance: CQIKNGLDNQKTDYNSSPF
- amyloid nucleation score: inactive

Substance: CQPNWGWCSARIVLHILVLR
- amyloid nucleation score: inactive

Substance: CRFFSGFLRPRSNVGGNRYS
- amyloid nucleation score: inactive

Substance: CRFVNLFGCVGS
- amyloid nucleation score: inactive

Substance: CRGTEAGHPHVGIDHRARMV
- amyloid nucleation score: -0.957 ± 1.8

Substance: CRLSGEYFIDTDPEVFLALM
- amyloid nucleation score: 0.397 ± 0.17

Substance: CRRVTKFESAFTWIFCKSCD
- amyloid nucleation score: -0.013 ± 0.39

Substance: CRSGCAVYS
- amyloid nucleation score: inactive

Substance: CRTHSDVVVSTHFMNAWLSI
- amyloid nucleation score: inactive

Substance: CRVPSLVIC
- amyloid nucleation score: inactive

Substance: CRVRGAVRSLLHTVFKVDWV
- amyloid nucleation score: inactive

Substance: CRYQCRQLKVIVCSGDWNLV
- amyloid nucleation score: inactive

Substance: CRYSSYVPVGLYKKWGICWM
- amyloid nucleation score: inactive

Substance: CRYSYSELKFVLFSGVGTSD
- amyloid nucleation score: inactive

Substance: CSFIGYHGFVCLSVDIVLGC
- amyloid nucleation score: 1.51 ± 0.12

Substance: CSGSDKVWTCLFLYAKKPRW
- amyloid nucleation score: inactive

Substance: CSGYARTLS
- amyloid nucleation score: inactive

Substance: CSGYSTNFGK
- amyloid nucleation score: inactive

Substance: CSIGVRSVVCS
- amyloid nucleation score: inactive

Substance: CSLIQSVRSTA
- amyloid nucleation score: inactive

Substance: CSLRLVAFSACGV
- amyloid nucleation score: inactive

Substance: CSNAGTCPCLCYRAILDQWV
- amyloid nucleation score: -0.401 ± 0.84

Substance: CSNRFSNHFMYYVSMLGDGL
- amyloid nucleation score: inactive

Substance: CSPGRIFHNGK
- amyloid nucleation score: inactive

Substance: CSRALYGCDRISRGLLEVCG
- amyloid nucleation score: inactive

Substance: CSSGYIQKMVSRYMSYGYHF
- amyloid nucleation score: inactive

Substance: CSTCISTNFSPY
- amyloid nucleation score: inactive

Substance: CSVGS
- amyloid nucleation score: inactive

Substance: CSVLC
- amyloid nucleation score: inactive

Substance: CSVVWIMV
- amyloid nucleation score: -0.852 ± 0.8

Substance: CSYRRLIFILCD
- amyloid nucleation score: inactive

Substance: CTFDWVLITLVEGSRAIW
- amyloid nucleation score: inactive

Substance: CTHHKNACL
- amyloid nucleation score: inactive

Substance: CTNCNAKAYPWGTVSMPREW
- amyloid nucleation score: inactive

Substance: CTRNEYIEW
- amyloid nucleation score: inactive

Substance: CTSLRLESPDFFSKRERSSN
- amyloid nucleation score: inactive

Substance: CTTVDVGALVDGESNHCISL
- amyloid nucleation score: inactive

Substance: CTYDSLRILAYRANQTNWFQ
- amyloid nucleation score: -0.278 ± 0.47

Substance: CVCPKANVEYPMACFRHIIV
- amyloid nucleation score: inactive

Substance: CVGMEVCGWEGS
- amyloid nucleation score: inactive

Substance: CVHYRFMLSRLYMILVPLTY
- amyloid nucleation score: inactive

Substance: CVNLYVELKFNHFDFVS
- amyloid nucleation score: 2.04 ± 0.09

Substance: CVNVLQPGVTHSRMANLCSG
- amyloid nucleation score: inactive

Substance: CVRYWKLGVVLRDG
- amyloid nucleation score: inactive

Substance: CVSDNSS
- amyloid nucleation score: -0.003 ± 0.8

Substance: CVSGASKVNWGSCY
- amyloid nucleation score: inactive

Substance: CVSSLIAKMGIVGCDGCYKG
- amyloid nucleation score: inactive

Substance: CVTSVAWANKICARQLFGAD
- amyloid nucleation score: 0.204 ± 0.37

Substance: CVVNSGFNLSCMIVSQSVSL
- amyloid nucleation score: inactive

Substance: CVVYIGCNATGFKC
- amyloid nucleation score: 1.87 ± 0.059

Substance: CWDEIHIMKAHIRSYGGSVS
- amyloid nucleation score: inactive

Substance: CWDYWACGQGTA
- amyloid nucleation score: inactive

Substance: CWRVYYLNVWVEVES
- amyloid nucleation score: inactive

Substance: CWSSIYSNDQDFYWKSPLLS
- amyloid nucleation score: inactive

Substance: CYADPG
- amyloid nucleation score: inactive

Substance: CYCVGHAVLCRPEHLCSVRL
- amyloid nucleation score: inactive

Substance: CYFQYGNWFHLEGRNRSRSN
- amyloid nucleation score: 1.17 ± 0.19

Substance: CYFVSVKLLTGVKLSHKYL
- amyloid nucleation score: 1.25 ± 0.15

Substance: CYGNSMIGVFRICFHSLVYV
- amyloid nucleation score: inactive

Substance: CYMYVRNGHLEIFLMGLSGF
- amyloid nucleation score: inactive

Substance: CYPVSVQYNGV
- amyloid nucleation score: inactive

Substance: CYSCSMLFISWLCRYRSTQY
- amyloid nucleation score: 1.02 ± 0.12

Substance: CYSGCEWSTYMLMGVLKVVS
- amyloid nucleation score: inactive

Substance: CYTMSNVRVPWKRGICYCGL
- amyloid nucleation score: inactive

Substance: CYWVRDSRLGW
- amyloid nucleation score: inactive

Substance: DACTVVCVCIQSIRGSQVSC
- amyloid nucleation score: 1.09 ± 0.15

Substance: DADTW
- amyloid nucleation score: inactive

Substance: DAFYIFWLDTSWFRWYAGTS
- amyloid nucleation score: -0.131 ± 0.61

Substance: DAIIVSIAYILG
- amyloid nucleation score: inactive

Substance: DAISVLCFLLKSFRWSTFRG
- amyloid nucleation score: inactive

Substance: DANGCA
- amyloid nucleation score: inactive

Substance: DAVGCNILACDSGGRDWTGG
- amyloid nucleation score: -0.744 ± 1.2

Substance: DCIYRDVCFNFTYMCKVNAQ
- amyloid nucleation score: inactive

Substance: DCKLVDIDSLLVTFDR
- amyloid nucleation score: inactive

Substance: DDFSVPTDLIDVRRVS
- amyloid nucleation score: -0.047 ± 1

Substance: DDIRCMFRTADFRAKMSVNS
- amyloid nucleation score: inactive

Substance: DDVLYS
- amyloid nucleation score: -0.19 ± 0.34

Substance: DDVTHISLKKNSDNLGYNSR
- amyloid nucleation score: inactive

Substance: DFARGYGDNALVFYLYGLMY
- amyloid nucleation score: -0.684 ± 0.8

Substance: DFFAHVNAIG
- amyloid nucleation score: inactive

Substance: DFLFTNFSNSDLRGILCQSF
- amyloid nucleation score: inactive

Substance: DFSSWSFYHYPLVGQSSYTS
- amyloid nucleation score: inactive

Substance: DFTCDPSTLNSRRLSEDLIR
- amyloid nucleation score: inactive

Substance: DFYEIRTSGCDLYMFRGVVA
- amyloid nucleation score: inactive

Substance: DFYGYSY
- amyloid nucleation score: inactive

Substance: DGAYYGLCMMFNVSVLMGII
- amyloid nucleation score: 0.063 ± 0.51

Substance: DGDFIWISYVRKPKVNNDMF
- amyloid nucleation score: inactive

Substance: DGGCSKIVRQTLWLNPLGNS
- amyloid nucleation score: inactive

Substance: DGKQVRGPGVAQSGANNGLE
- amyloid nucleation score: inactive

Substance: DGLIECWDFNRIMGLNKQNK
- amyloid nucleation score: -1.33 ± 1.9

Substance: DGLYSTNQRSIAPHLTQPID
- amyloid nucleation score: inactive

Substance: DGMFSFGSLCRYAELETSGK
- amyloid nucleation score: inactive

Substance: DGMNSPRMEIRDRDRSAYIL
- amyloid nucleation score: inactive

Substance: DGNFNQRYAHLDRSGCWL
- amyloid nucleation score: inactive

Substance: DGRAWRALRGPK
- amyloid nucleation score: inactive

Substance: DHFMNGMKQYTCRYFVLWPS
- amyloid nucleation score: inactive

Substance: DHVGADMGLCDNVG
- amyloid nucleation score: inactive

Substance: DIFCLVVTYAERLLYLKTRT
- amyloid nucleation score: -0.09 ± 0.75

Substance: DIFSRSVS
- amyloid nucleation score: inactive

Substance: DIFTPILMLCWV
- amyloid nucleation score: inactive

Substance: DIKVMNLCLNWFFRLIHGV
- amyloid nucleation score: inactive

Substance: DILFDGESLFPYTENSWETR
- amyloid nucleation score: inactive

Substance: DIQNFHQKTKGCLLFVWRRQ
- amyloid nucleation score: inactive

Substance: DIRRSYTLVRTGFTV
- amyloid nucleation score: inactive

Substance: DISFLSRSRYRKSHGVVNFS
- amyloid nucleation score: 0.206 ± 0.43

Substance: DISHKLNTTIVMYFREALRG
- amyloid nucleation score: inactive

Substance: DISPYFLYE
- amyloid nucleation score: inactive

Substance: DIYMMLICGWGLGKLIPGFM
- amyloid nucleation score: inactive

Substance: DKDRVVSCMMTLLLSVGCAV
- amyloid nucleation score: inactive

Substance: DKKGK
- amyloid nucleation score: inactive

Substance: DLCVLAMASFEVAIAHGRPR
- amyloid nucleation score: 0.172 ± 0.88

Substance: DLIVILLTSYMYENVVVLNF
- amyloid nucleation score: inactive
